In PMC12366639:

Substrate: CC=O
Assay: purified protein
Format: biochemical, Homo sapiens
Conditions: NAD+

B1: aldehyde dehydrogenase 2 (ALDH2) (Homo sapiens) (protein)
chain: SAAATQAVPAPNQQPEVFCNQIFINNEWHDAVSRKTFPTVNPSTGEVICQVAEGDKEDVDKAVKAARAAFQLGSPWRRMDASHRGRLLNRLADLIERDRTYLAALETLDNGKPYVISYLVDLDMVLKCLRYYAGWADKYHGKTIPIDGDFFSYTRHEPVGVCGQIIPWNFPLLMQAWKLGPALATGNVVVMKVAEQTPLTALYVANLIKEAGFPPGVVNIVPGFGPTAGAAIASHEDVDKVAFTGSTEIGRVIQVAAGSSNLKRVTLELGGKSPNIIMSDADMDWAVEQAHFALFFNQGQCCCAGSRTFVQEDIYDEFVERSVARAKSRVVGNPFDSKTEQGPQVDETQFKKILGYINTGKQEGAKLLCGGGIAADRGYFIQPTVFGDVQDGMTIAKEEIFGPVMQILKFKTIEEVVGRANNSTYGLAAAVFTKDLDKANYLSQALQAGTVWVNCYDVFGAQSPFGGYKMSGSGRELGEYGLQAYTEVKTVTVKVPQKNS
  Km: 1.8 µM
